Bridges are numbered along the chain shown (N, C = ends). Where no end group is shown, it is not given here. [ ]: non-standard residue; d: D form.
B1: (cyclo 29-32) [Ac-Pro3,D-Pro4,D-Phe11, Glu29, Lys32]-hUcn(3-40) (peptide)
peptide: Ac-P[dP]LSIDLT[dF]HLLRTLLELARTQSQREEAEKNRIIFDSV-NH2
modifications: lactam 27-30
SMILES: CC[C@H](C)[C@H](NC(=O)[C@H](CO)NC(=O)[C@H](CC(C)C)NC(=O)[C@H]1CCCN1C(=O)[C@@H]1CCCN1C(C)=O)C(=O)N[C@@H](CC(=O)O)C(=O)N[C@@H](CC(C)C)C(=O)N[C@H](C(=O)N[C@H](Cc1ccccc1)C(=O)N[C@@H](Cc1c[nH]cn1)C(=O)N[C@@H](CC(C)C)C(=O)N[C@@H](CC(C)C)C(=O)N[C@@H](CCCNC(=N)N)C(=O)N[C@H](C(=O)N[C@@H](CC(C)C)C(=O)N[C@@H](CC(C)C)C(=O)N[C@@H](CCC(=O)O)C(=O)N[C@@H](CC(C)C)C(=O)N[C@@H](C)C(=O)N[C@@H](CCCNC(=N)N)C(=O)N[C@H](C(=O)N[C@@H](CCC(N)=O)C(=O)N[C@@H](CO)C(=O)N[C@@H](CCC(N)=O)C(=O)N[C@@H](CCCNC(=N)N)C(=O)N[C@@H](CCC(=O)O)C(=O)N[C@H]1CCC(=O)NCCCC[C@@H](C(=O)N[C@@H](CC(N)=O)C(=O)N[C@@H](CCCNC(=N)N)C(=O)N[C@H](C(=O)N[C@H](C(=O)N[C@@H](Cc2ccccc2)C(=O)N[C@@H](CC(=O)O)C(=O)N[C@@H](CO)C(=O)N[C@H](C(N)=O)C(C)C)[C@@H](C)CC)[C@@H](C)CC)NC(=O)[C@H](CCC(=O)O)NC(=O)[C@H](C)NC1=O)[C@@H](C)O)[C@@H](C)O)[C@@H](C)O
B2: (cyclo 29-32) [Ac-Pro3,D-Ser4,D-Phe11, Glu29, Lys32]-hUcn(3-40) (peptide)
peptide: Ac-P[dS]LSIDLT[dF]HLLRTLLELARTQSQREEAEKNRIIFDSV-NH2
modifications: lactam 27-30
SMILES: CC[C@H](C)[C@H](NC(=O)[C@H](CO)NC(=O)[C@H](CC(C)C)NC(=O)[C@@H](CO)NC(=O)[C@@H]1CCCN1C(C)=O)C(=O)N[C@@H](CC(=O)O)C(=O)N[C@@H](CC(C)C)C(=O)N[C@H](C(=O)N[C@H](Cc1ccccc1)C(=O)N[C@@H](Cc1c[nH]cn1)C(=O)N[C@@H](CC(C)C)C(=O)N[C@@H](CC(C)C)C(=O)N[C@@H](CCCNC(=N)N)C(=O)N[C@H](C(=O)N[C@@H](CC(C)C)C(=O)N[C@@H](CC(C)C)C(=O)N[C@@H](CCC(=O)O)C(=O)N[C@@H](CC(C)C)C(=O)N[C@@H](C)C(=O)N[C@@H](CCCNC(=N)N)C(=O)N[C@H](C(=O)N[C@@H](CCC(N)=O)C(=O)N[C@@H](CO)C(=O)N[C@@H](CCC(N)=O)C(=O)N[C@@H](CCCNC(=N)N)C(=O)N[C@@H](CCC(=O)O)C(=O)N[C@H]1CCC(=O)NCCCC[C@@H](C(=O)N[C@@H](CC(N)=O)C(=O)N[C@@H](CCCNC(=N)N)C(=O)N[C@H](C(=O)N[C@H](C(=O)N[C@@H](Cc2ccccc2)C(=O)N[C@@H](CC(=O)O)C(=O)N[C@@H](CO)C(=O)N[C@H](C(N)=O)C(C)C)[C@@H](C)CC)[C@@H](C)CC)NC(=O)[C@H](CCC(=O)O)NC(=O)[C@H](C)NC1=O)[C@@H](C)O)[C@@H](C)O)[C@@H](C)O
B3: (cyclo 29-32)[D-Phe11, Glu29, Lys32]-Ucn(11-40) (peptide)
peptide: [dF]HLLRTLLELARTQSQREEAEKNRIIFDSV-NH2
modifications: lactam 19-22; N-terminus assumed
SMILES: CC[C@H](C)[C@H](NC(=O)[C@H](CCCNC(=N)N)NC(=O)[C@H](CC(N)=O)NC(=O)[C@@H]1CCCCNC(=O)CC[C@H](NC(=O)[C@H](CCC(=O)O)NC(=O)[C@H](CCCNC(=N)N)NC(=O)[C@H](CCC(N)=O)NC(=O)[C@H](CO)NC(=O)[C@H](CCC(N)=O)NC(=O)[C@@H](NC(=O)[C@H](CCCNC(=N)N)NC(=O)[C@H](C)NC(=O)[C@H](CC(C)C)NC(=O)[C@H](CCC(=O)O)NC(=O)[C@H](CC(C)C)NC(=O)[C@H](CC(C)C)NC(=O)[C@@H](NC(=O)[C@H](CCCNC(=N)N)NC(=O)[C@H](CC(C)C)NC(=O)[C@H](CC(C)C)NC(=O)[C@H](Cc2c[nH]cn2)NC(=O)[C@H](N)Cc2ccccc2)[C@@H](C)O)[C@@H](C)O)C(=O)N[C@@H](C)C(=O)N[C@@H](CCC(=O)O)C(=O)N1)C(=O)N[C@H](C(=O)N[C@@H](Cc1ccccc1)C(=O)N[C@@H](CC(=O)O)C(=O)N[C@@H](CO)C(=O)N[C@H](C(N)=O)C(C)C)[C@@H](C)CC
B4: (cyclo 29-32) [D-Tyr11, Glu29, Lys32]-Ucn(11-40) (peptide)
peptide: [dY]HLLRTLLELARTQSQREEAEKNRIIFDSV-NH2
modifications: lactam 19-22; N-terminus assumed
SMILES: CC[C@H](C)[C@H](NC(=O)[C@H](CCCNC(=N)N)NC(=O)[C@H](CC(N)=O)NC(=O)[C@@H]1CCCCNC(=O)CC[C@H](NC(=O)[C@H](CCC(=O)O)NC(=O)[C@H](CCCNC(=N)N)NC(=O)[C@H](CCC(N)=O)NC(=O)[C@H](CO)NC(=O)[C@H](CCC(N)=O)NC(=O)[C@@H](NC(=O)[C@H](CCCNC(=N)N)NC(=O)[C@H](C)NC(=O)[C@H](CC(C)C)NC(=O)[C@H](CCC(=O)O)NC(=O)[C@H](CC(C)C)NC(=O)[C@H](CC(C)C)NC(=O)[C@@H](NC(=O)[C@H](CCCNC(=N)N)NC(=O)[C@H](CC(C)C)NC(=O)[C@H](CC(C)C)NC(=O)[C@H](Cc2c[nH]cn2)NC(=O)[C@H](N)Cc2ccc(O)cc2)[C@@H](C)O)[C@@H](C)O)C(=O)N[C@@H](C)C(=O)N[C@@H](CCC(=O)O)C(=O)N1)C(=O)N[C@H](C(=O)N[C@@H](Cc1ccccc1)C(=O)N[C@@H](CC(=O)O)C(=O)N[C@@H](CO)C(=O)N[C@H](C(N)=O)C(C)C)[C@@H](C)CC
B5: (cyclo 29-32) [D-Phe11, Glu29, D-Glu31, Lys32]-Ucn(11-40) (peptide)
peptide: [dF]HLLRTLLELARTQSQREEA[dE]KNRIIFDSV-NH2
modifications: lactam 19-22; N-terminus assumed
SMILES: CC[C@H](C)[C@H](NC(=O)[C@H](CCCNC(=N)N)NC(=O)[C@H](CC(N)=O)NC(=O)[C@@H]1CCCCNC(=O)CC[C@H](NC(=O)[C@H](CCC(=O)O)NC(=O)[C@H](CCCNC(=N)N)NC(=O)[C@H](CCC(N)=O)NC(=O)[C@H](CO)NC(=O)[C@H](CCC(N)=O)NC(=O)[C@@H](NC(=O)[C@H](CCCNC(=N)N)NC(=O)[C@H](C)NC(=O)[C@H](CC(C)C)NC(=O)[C@H](CCC(=O)O)NC(=O)[C@H](CC(C)C)NC(=O)[C@H](CC(C)C)NC(=O)[C@@H](NC(=O)[C@H](CCCNC(=N)N)NC(=O)[C@H](CC(C)C)NC(=O)[C@H](CC(C)C)NC(=O)[C@H](Cc2c[nH]cn2)NC(=O)[C@H](N)Cc2ccccc2)[C@@H](C)O)[C@@H](C)O)C(=O)N[C@@H](C)C(=O)N[C@H](CCC(=O)O)C(=O)N1)C(=O)N[C@H](C(=O)N[C@@H](Cc1ccccc1)C(=O)N[C@@H](CC(=O)O)C(=O)N[C@@H](CO)C(=O)N[C@H](C(N)=O)C(C)C)[C@@H](C)CC
B6: (cyclo 29-32) [Pro10,D-Phe11, Glu29,D-Glu31, Lys32]-Ucn(10-40) (peptide)
peptide: P[dF]HLLRTLLELARTQSQREEA[dE]KNRIIFDSV-NH2
modifications: lactam 20-23; N-terminus assumed
SMILES: CC[C@H](C)[C@H](NC(=O)[C@H](CCCNC(=N)N)NC(=O)[C@H](CC(N)=O)NC(=O)[C@@H]1CCCCNC(=O)CC[C@H](NC(=O)[C@H](CCC(=O)O)NC(=O)[C@H](CCCNC(=N)N)NC(=O)[C@H](CCC(N)=O)NC(=O)[C@H](CO)NC(=O)[C@H](CCC(N)=O)NC(=O)[C@@H](NC(=O)[C@H](CCCNC(=N)N)NC(=O)[C@H](C)NC(=O)[C@H](CC(C)C)NC(=O)[C@H](CCC(=O)O)NC(=O)[C@H](CC(C)C)NC(=O)[C@H](CC(C)C)NC(=O)[C@@H](NC(=O)[C@H](CCCNC(=N)N)NC(=O)[C@H](CC(C)C)NC(=O)[C@H](CC(C)C)NC(=O)[C@H](Cc2c[nH]cn2)NC(=O)[C@@H](Cc2ccccc2)NC(=O)[C@@H]2CCCN2)[C@@H](C)O)[C@@H](C)O)C(=O)N[C@@H](C)C(=O)N[C@H](CCC(=O)O)C(=O)N1)C(=O)N[C@H](C(=O)N[C@@H](Cc1ccccc1)C(=O)N[C@@H](CC(=O)O)C(=O)N[C@@H](CO)C(=O)N[C@H](C(N)=O)C(C)C)[C@@H](C)CC
B7: (cyclo 29-32) [D-Pro10,D-Phe11, Glu29, D-Glu31, Lys32]-Ucn(10-40) (peptide)
peptide: [dP][dF]HLLRTLLELARTQSQREEA[dE]KNRIIFDSV-NH2
modifications: lactam 20-23; N-terminus assumed
SMILES: CC[C@H](C)[C@H](NC(=O)[C@H](CCCNC(=N)N)NC(=O)[C@H](CC(N)=O)NC(=O)[C@@H]1CCCCNC(=O)CC[C@H](NC(=O)[C@H](CCC(=O)O)NC(=O)[C@H](CCCNC(=N)N)NC(=O)[C@H](CCC(N)=O)NC(=O)[C@H](CO)NC(=O)[C@H](CCC(N)=O)NC(=O)[C@@H](NC(=O)[C@H](CCCNC(=N)N)NC(=O)[C@H](C)NC(=O)[C@H](CC(C)C)NC(=O)[C@H](CCC(=O)O)NC(=O)[C@H](CC(C)C)NC(=O)[C@H](CC(C)C)NC(=O)[C@@H](NC(=O)[C@H](CCCNC(=N)N)NC(=O)[C@H](CC(C)C)NC(=O)[C@H](CC(C)C)NC(=O)[C@H](Cc2c[nH]cn2)NC(=O)[C@@H](Cc2ccccc2)NC(=O)[C@H]2CCCN2)[C@@H](C)O)[C@@H](C)O)C(=O)N[C@@H](C)C(=O)N[C@H](CCC(=O)O)C(=O)N1)C(=O)N[C@H](C(=O)N[C@@H](Cc1ccccc1)C(=O)N[C@@H](CC(=O)O)C(=O)N[C@@H](CO)C(=O)N[C@H](C(N)=O)C(C)C)[C@@H](C)CC

These molecules were tested against CRF receptors on anterior pituitary cells in culture (assay: cell-based or functional assay). Details: not given.

Row | Molecule | ACTH secretion, anterior pituitary cell cultures, potency relative to r/hCRF [times r/hCRF] | antagonism of ACTH secretion under a challenge dose of ovine CRF, potency relative to the Standard Antagonist (times Standard Antagonist)
1 | B1 | 9.9 | 
2 | B2 | 5.69 | 
3 | B3 |  | 10.3
4 | B4 |  | 4.01
5 | B5 |  | 4.72
6 | B6 |  | 2.74
7 | B7 |  | 4.99

What follows are molecules tested on mammalian systemic blood pressure (assay: mammalian vasodilatory-hypotensive activity). Details: result in words.
Assay type: in vivo

Row | Molecule | vasodilatory-hypotensive activity, including lowering systemic blood pressure and stimulating the secretion of ACTH
8 | H-DNPSLSIDLT[dF]HLLRTLLELARTQSQRERAEQNRIIFDSV-NH2 [[D-Phe^11]-hUcn] | significant mammalian vasodilatory-hypotensive activity
9 | H-Asn-Pro-Ser-Leu-Ser-Ile-Asp-Leu-Thr-Phe-His-Leu-Leu-Arg-Thr-Leu-Leu-Glu-Leu-Ala-Arg-Thr-Gln-Ser-Gln-Arg-Glu-Arg-Ala-Glu-Gln-Asn-Arg-Ile-Ile-Phe-Asp-Ser-Val-NH2 (H-NPSLSIDLTFHLLRTLLELARTQSQRERAEQNRIIFDSV-NH2) [hUcn(2-40)] | significant mammalian vasodilatory-hypotensive activity

Reference: US20030032587A1, “Urocortin peptides” (The Salk Institute for Biological Studies, priority 1995, published 2003)
